Test system: NSP1 (SARS-CoV-2)

## 18S rRNA
  binding signal (fold enrichment): > 5

— US20250320258
